Patent US20110318347A1 (Ablynx, published 2011)

T1: CXCR3 (UniProt P49682 1-368, limits assumed)
T1 construct: whole, on cells
T1 sequence (looked up): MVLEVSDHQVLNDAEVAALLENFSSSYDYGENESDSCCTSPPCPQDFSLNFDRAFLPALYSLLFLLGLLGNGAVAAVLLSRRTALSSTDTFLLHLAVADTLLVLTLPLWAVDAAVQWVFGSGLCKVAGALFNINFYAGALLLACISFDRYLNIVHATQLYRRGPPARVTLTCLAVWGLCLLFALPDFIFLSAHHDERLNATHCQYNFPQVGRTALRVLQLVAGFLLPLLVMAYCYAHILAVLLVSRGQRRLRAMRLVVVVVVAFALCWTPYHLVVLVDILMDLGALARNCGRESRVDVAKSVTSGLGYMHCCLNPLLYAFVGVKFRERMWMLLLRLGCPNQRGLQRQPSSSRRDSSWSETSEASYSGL

B1: Nanobody 238D2 (VHH)
VHH: EVQLVESGGGLVQTGGSLRLSCAASGFTFSSYAMSWVRQAPGKGLEWVSGIKSSGDSTRYAGSVKGRFTISRDNAKNMLYLQMYSLKPEDTAVYYCAKSRVSRTGLYTYDNRGQGTQVTVSS
modifications: In some assays the Nanobody was 125I-labelled (Iodo-gen, on tyrosine); the letters do not carry this.
notes: Monovalent llama VHH against human CXCR4, purified; tags not described; also called 238C1
B2: Nanobody 03F11 (VHH)
VHH: EVQLVESGGGSVQPGGSLTLSCGTSGRTFNVMGWFRQAPGKEREFVAAVRWSSTGIYYTQYADSVKSRFTISRDNAKNTVYLEMNSLKPEDTAVYYCAADTYNSNPARWDGYDFRGQGTQVTVSS

Tests used:
CXCR3 = biological target: T1, CXCR3; experiment: total binding of [125I]-238D2 to membranes of HEK293T cells expressing CXCR4 or CXCR3
CCR5 = CCR5 (UniProt P51681 1-352, limits assumed); experiment: cell-based or functional assay
Sequence of CCR5 (P51681 whole entry): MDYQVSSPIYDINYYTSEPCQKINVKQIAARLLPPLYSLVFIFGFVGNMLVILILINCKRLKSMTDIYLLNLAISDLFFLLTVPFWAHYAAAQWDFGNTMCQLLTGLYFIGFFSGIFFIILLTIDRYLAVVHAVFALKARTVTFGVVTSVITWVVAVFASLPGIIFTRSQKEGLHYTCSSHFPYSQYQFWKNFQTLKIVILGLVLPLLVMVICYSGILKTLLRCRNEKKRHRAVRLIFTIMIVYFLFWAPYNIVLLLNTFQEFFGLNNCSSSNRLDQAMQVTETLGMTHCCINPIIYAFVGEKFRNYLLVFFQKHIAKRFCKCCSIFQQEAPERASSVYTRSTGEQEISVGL

human CD4 on cells = human CD4 on cells (human, UniProt P01730 26-458); experiment: cell-based or functional assay

Binder	binding result (CXCR3)	IC50, HIV-1 BaL, PBMC donor 1 (CCR5)	IC50, HIV-1 BaL, PBMC donor 2 (CCR5)	nM IC50, HIV-1 BAL, PBMC donor 1 (CCR5)	nM IC50, HIV-1 BAL, PBMC donor 2 (CCR5)	anti-HIV activity, NL4.3 on MT4 cells, MTS method, IC50 (human CD4 on cells)	anti-HIV activity, NL4.3 on MT4 cells, p24 levels, IC50 (human CD4 on cells)
B1	no binding (tested: 3 nM radioligand)	> 1 µg/mL	> 1 µg/mL	> 67 nM	> 67 nM		
B2						85 nM	15 nM
